First the molecules themselves.
B1: 1+2 IgG-[L]-scFv variant, one anti-GD2 Fab, one irrelevant (anti-CD33) Fab, two anti-CD3 scFv (1(GD2)+2(CD3)) (bispecific antibody)
light 1: EIVMTQTPATLSVSAGERVTITCKASQSVSNDVTWYQQKPGQAPRLLIYSASNRYSGVPARFSGSGYGTEFTFTISSVQSEDFAVYFCQQDYSSFGQGTKLEIKRTVAAPSVFIFPPSDEQLKSGTASVVCLLNNFYPREAKVQWKVDNALQSGNSQESVTEQDSKDSTYSLSSTLTLSKADYEKHKVYACEVTHQGLSSPVTKSFNRGECTSGGGGSGGGGSGGGGSQVQLVQSGGGVVQPGRSLRLSCKASGYTFTRYTMHWVRQAPGKCLEWIGYINPSRGYTNYNQKFKDRFTISRDNSKNTAFLQMDSLRPEDTGVYFCARYYDDHYSLDYWGQGTPVTVSSGGGGSGGGGSGGGGSGGGGSGGGGSGGGGSDIQMTQSPSSLSASVGDRVTITCSASSSVSYMNWYQQTPGKAPKRWIYDTSKLASGVPSRFSGSGSGTDYTFTISSLQPEDIATYYCQQWSSNPFTFGCGTKLQITR
heavy 1: not shown
light 2: EIVLTQSPATLSVSLGERATISCRASESVDNYGISFMNWFQQKPGQPPRLLIYAASNQGSGVPARFSGSGPGTDFTLTISSMEPEDFAMYFCQQSKEVPWTFGGGTKLEIKRTVAAPSVFIFPPSDEQLKSGTASVVCLLNNFYPREAKVQWKVDNALQSGNSQESVTEQDSKDSTYSLSSTLTLSKADYEKHKVYACEVTHQGLSSPVTKSFNRGECTSGGGGSGGGGSGGGGSQVQLVQSGGGVVQPGRSLRLSCKASGYTFTRYTMHWVRQAPGKCLEWIGYINPSRGYTNYNQKFKDRFTISRDNSKNTAFLQMDSLRPEDTGVYFCARYYDDHYSLDYWGQGTPVTVSSGGGGSGGGGSGGGGSGGGGSGGGGSGGGGSDIQMTQSPSSLSASVGDRVTITCSASSSVSYMNWYQQTPGKAPKRWIYDTSKLASGVPSRFSGSGSGTDYTFTISSLQPEDIATYYCQQWSSNPFTFGCGTKLQITR
heavy 2: not shown
notes: also called 1+2 BsAb
B2: 1+1C IgG-[L]-scFv variant, one anti-GD2 Fab and one anti-CD3 scFv in cis, second Fab irrelevant (anti-CD33) (bispecific antibody)
light 1: B1 light 1
heavy 1: not shown
light 2: EIVLTQSPATLSVSLGERATISCRASESVDNYGISFMNWFQQKPGQPPRLLIYAASNQGSGVPARFSGSGPGTDFTLTISSMEPEDFAMYFCQQSKEVPWTFGGGTKLEIKRTVAAPSVFIFPPSDEQLKSGTASVVCLLNNFYPREAKVQWKVDNALQSGNSQESVTEQDSKDSTYSLSSTLTLSKADYEKHKVYACEVTHQGLSSPVTKSFNRGEC
heavy 2: not shown
B3: 2+1 IgG-[L]-scFv variant, two anti-GD2 Fabs and one anti-CD3 scFv (2(GD2)+1(CD3)) (bispecific antibody)
light 1: B1 light 1
light 2: EIVMTQTPATLSVSAGERVTITCKASQSVSNDVTWYQQKPGQAPRLLIYSASNRYSGVPARFSGSGYGTEFTFTISSVQSEDFAVYFCQQDYSSFGQGTKLEIKRTVAAPSVFIFPPSDEQLKSGTASVVCLLNNFYPREAKVQWKVDNALQSGNSQESVTEQDSKDSTYSLSSTLTLSKADYEKHKVYACEVTHQGLSSPVTKSFNRGEC
heavy 1: QVQLVESGPGVVQPGRSLRISCAVSGFSVTNYGVHWVRQPPGKGLEWLGVIWAGGITNYNSAFMSRLTISKDNSKNTVYLQMNSLRAEDTAMYYCASRGGHYGYALDYWGQGTLVTVSSASTKGPSVFPLAPSSKSTSGGTAALGCLVKDYFPEPVTVSWNSGALTSGVHTFPAVLQSSGLYSLSSVVTVPSSSLGTQTYICNVNHKPSNTKVDKRVEPKSCDKTHTCPPCPAPELLGGPSVFLFPPKPKDTLMISRTPEVTCVVVDVSHEDPEVKFNWYVDGVEVHNAKTKPREEQYASTYRVVSVLTVLHQDWLNGKEYKCAVSNKALPAPIEKTISKAKGQPREPQVYTLPPSRDELTKNQVSLTCLVKGFYPSDIAVEWESNGQPENNYKTTPPVLDSDGSFLLYSKLTVDKSRWQQGNVFSCSVMHEALHNHYTQKSLSLSPGK
heavy 2: B3 heavy 1 with L407F, K411R
notes: Heterodimer made by Fab arm exchange; Choice of the first anti-GD2 set as for m1; also called 2+1 BsAb
B4: 1+1T IgG-[L]-scFv variant, one anti-GD2 Fab and one anti-CD3 scFv in trans, second Fab irrelevant (anti-CD33) (bispecific antibody)
light 1: B3 light 2
heavy 1: not shown
light 2: B1 light 2
heavy 2: not shown
B5: IgG-Het, heterodimeric IgG with one anti-GD2 Fab and one anti-CD3 Fab (1+1) (bispecific antibody)
light 1: B3 light 2
heavy 1: not shown
light 2: DIQMTQSPSSLSASVGDRVTITCSASSSVSYMNWYQQTPGKAPKRWIYDTSKLASGVPSRFSGSGSGTDYTFTISSLQPEDIATYYCQQWSSNPFTFGQGTKLQITRTVAAPSVFIFPPSDEQLKSGTASVVCLLNNFYPREAKVQWKVDNALQSGNSQESVTEQDSKDSTYSLSSTLTLSKADYEKHKVYACEVTHQGLSSPVTKSFNRGEC
heavy 2: not shown
notes: also called 1+1H; 1 + 1H
B6: 2+2 IgG-[L]-scFv, anti-CD33 Fab x anti-CD3 scFv (bispecific antibody)
light: B1 light 2
heavy: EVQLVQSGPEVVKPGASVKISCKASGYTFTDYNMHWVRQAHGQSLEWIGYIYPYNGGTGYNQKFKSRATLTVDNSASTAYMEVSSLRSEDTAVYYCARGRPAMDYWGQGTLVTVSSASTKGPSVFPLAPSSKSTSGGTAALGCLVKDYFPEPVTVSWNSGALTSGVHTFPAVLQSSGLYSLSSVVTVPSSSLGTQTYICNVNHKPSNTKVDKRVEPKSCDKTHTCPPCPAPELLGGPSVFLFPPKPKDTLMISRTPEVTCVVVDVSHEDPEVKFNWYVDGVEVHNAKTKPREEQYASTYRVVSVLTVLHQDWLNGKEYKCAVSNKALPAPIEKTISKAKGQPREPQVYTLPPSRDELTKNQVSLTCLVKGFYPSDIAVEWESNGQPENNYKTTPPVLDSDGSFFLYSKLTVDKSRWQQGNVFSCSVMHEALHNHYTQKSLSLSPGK
notes: also called 2+2 (CD33); anti-CD33/CD3 IgG-[L]-scFv
B7: 2+2 IgG-[L]-scFv bispecific antibody, anti-GD2 Fab x anti-CD3 scFv (2(GD2)+2(CD3)) (bispecific antibody)
light: B1 light 1
heavy: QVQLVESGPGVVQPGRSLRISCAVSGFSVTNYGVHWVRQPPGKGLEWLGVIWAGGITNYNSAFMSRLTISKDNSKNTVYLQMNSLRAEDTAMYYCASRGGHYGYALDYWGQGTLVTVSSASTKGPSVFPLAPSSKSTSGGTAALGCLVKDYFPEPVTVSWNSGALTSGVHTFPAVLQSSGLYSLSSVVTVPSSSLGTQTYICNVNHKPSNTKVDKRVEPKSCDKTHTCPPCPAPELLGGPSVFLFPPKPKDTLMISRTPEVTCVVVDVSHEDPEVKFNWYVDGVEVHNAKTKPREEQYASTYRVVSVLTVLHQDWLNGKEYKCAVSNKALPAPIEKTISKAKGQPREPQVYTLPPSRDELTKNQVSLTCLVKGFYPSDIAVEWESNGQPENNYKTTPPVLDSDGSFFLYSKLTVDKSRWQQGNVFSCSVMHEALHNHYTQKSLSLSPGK
notes: Homodimeric format; also called 2+2 BsAb; parental 2+2

We go through seven molecules from patent US20220098329A1 (Memorial Sloan Kettering, published 2022).

Where a chain is given by its changes, count along the chain named.

T1 sequence (P07766 23-126, stated change not applied, chain 1 of 2): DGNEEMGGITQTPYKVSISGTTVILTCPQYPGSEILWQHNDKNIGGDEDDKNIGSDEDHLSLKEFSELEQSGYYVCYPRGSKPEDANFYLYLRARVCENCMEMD
T1 sequence (P04234 22-105, stated change not applied, chain 2 of 2): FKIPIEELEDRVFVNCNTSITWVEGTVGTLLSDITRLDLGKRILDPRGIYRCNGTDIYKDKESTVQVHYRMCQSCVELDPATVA
T2 sequence (P20138 18-364 limits assumed): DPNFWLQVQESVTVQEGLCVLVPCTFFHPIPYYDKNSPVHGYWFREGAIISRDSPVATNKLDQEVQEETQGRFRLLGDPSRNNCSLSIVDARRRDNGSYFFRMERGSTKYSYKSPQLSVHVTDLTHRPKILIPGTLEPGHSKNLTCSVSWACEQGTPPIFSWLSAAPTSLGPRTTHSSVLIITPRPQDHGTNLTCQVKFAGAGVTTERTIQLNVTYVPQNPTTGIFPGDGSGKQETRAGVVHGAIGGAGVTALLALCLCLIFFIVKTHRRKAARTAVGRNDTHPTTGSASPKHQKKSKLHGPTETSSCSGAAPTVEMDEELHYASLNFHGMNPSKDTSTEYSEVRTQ

The first assay has as its target T1, huCD3de antigen (human CD3 delta/epsilon, coated on SPR chip) (human, UniProt P07766 23-126; P04234 22-105).
T1 construct: Source and construct are not described; also called CD3 coated chips
As to the kind of experiment: SPR (Biacore T200), huCD3de-coated chip. (In general: Surface plasmon resonance follows binding to a sensor surface in real time, without labels.)
For the molecule B1, the “Fold Change (KD CD3, against 2+2)” value turned out to be 1 fold.

Consider B2, for which the “Fold Change (KD CD3, against 2+2)” value was found to be 11 fold. For the molecule B3, the “Fold Change (KD CD3, against 2+2)” value was 30.1 fold. As to B4, the “Fold Change (KD CD3, against 2+2)” value worked out at 8.5 fold. With B5, the “Fold Change (KD CD3, against 2+2)” value stood at 6.8 fold.

Another assay has as its target T2, CD33 on MOLM13-fluc cells (UniProt P20138 18-364, limits assumed).
T2 construct: whole, on cells; also called CD33(+) MOLM13-fluc
As to the kind of experiment: flow cytometry, CD33(+) MOLM13-fluc cells. For orientation: Flow cytometry measures light scatter and fluorescence of single cells or particles in a stream.
In the case of B6, the binding result is recorded as “binds”.

The next assay has as its target T1, huCD3de antigen (human CD3 …). As to the kind of experiment: SPR (Biacore T200), huCD3de-coated chip, BsAb titrated over chip, two-state reaction model.
As to B7, the Kd (in general, the concentration at which binding is half-saturated) is 10 nM. Regarding B1, the dissociation constant Kd stood at 11 nM. In turn, B2 gave a Kd of 110 nM. On the same count and under the same terms, the same measure for B3: 310 nM; for B4: 88 nM.

The molecule B5 registered a Kd of 70 nM.
